Tested on: plasminogen according to the present invention (20 mg/ml, Example 8)

| Substance | plasmin activity after activation |
| --- | --- |
| Elastase | 0.63 U/mg |
| Endoproteinase Asp-N | 4.3 U/mg |
| Endoproteinase Glu-C | 0.6 U/mg |
| Ficin | 0.01 U/mg |
| Protease VIII | 9 U/mg |
| Protease XIII | 0.01 U/mg |
| Protease XVIII | 0.7 U/mg |
| Protease from S. griseus | 613.3 U/mg |
| Proteinase A | 0.02 U/mg |
| Thrombin | 83.0 U/mg |
| Trypsin | 11 kU/mg |
